Positions count from the first letter of the chain named.

One assay concerns the target T1, recombinant mouse DLL4 (mouse, UniProt Q9JI71 27-532).
T1 construct: extracellular domain; also called rmDLL4; mDLL4
The experiment in a line: binding ELISA, coated rmDLL4. On the procedure: In order to determine cross-reactivity to mouse DII4 a binding ELISA is performed. […] Wells are blocked with a casein solution (1% in PBS). VHHs are applied as dilution series and binding is detected using a mouse anti-myc (Roche) and an anti-mouse-AP conjugate (Sigma, St Louis, Mo., USA) (FIG. 7 A-H). As reference, binding to human DII4 is measured.
(In general: An ELISA detects its analyte on a solid surface through an enzyme-linked reagent.)

A further assay deals with T2, human Jagged-1 (human, UniProt P78504 34-1067, limits assumed).
T2 construct: also called hJagged-1; hJAG1
Description: binding ELISA on coated recombinant human Jagged-1, OD 405 nm. The procedure, abridged: (§1)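 Plates coated overnight at 4° C with 1 μg/mL ligand, blocked with 1% casein in PBS. VHH dilution series applied; bound VHH detected via mouse anti-myc then anti-mouse-AP conjugate.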

Assay [1] concerns the target T3, mouse DLL4 overexpressed on cells (mouse, UniProt Q9JI71 27-686).
T3 construct: whole, on cells; also called CHO-mDLL4; CHO-mDII4
Description: FMAT, labelled hNotch1-Fc on CHO-mDLL4, periplasmic extract. An excerpt:
All calculations are based on the FL1_total signal which comprises the average of the fluorescence per well times the number of counts per well.

A further assay deals with T4, human DLL1 (human, UniProt O00548 18-545, limits assumed).
T4 construct: also called hDLL1
T4 sequence (looked up): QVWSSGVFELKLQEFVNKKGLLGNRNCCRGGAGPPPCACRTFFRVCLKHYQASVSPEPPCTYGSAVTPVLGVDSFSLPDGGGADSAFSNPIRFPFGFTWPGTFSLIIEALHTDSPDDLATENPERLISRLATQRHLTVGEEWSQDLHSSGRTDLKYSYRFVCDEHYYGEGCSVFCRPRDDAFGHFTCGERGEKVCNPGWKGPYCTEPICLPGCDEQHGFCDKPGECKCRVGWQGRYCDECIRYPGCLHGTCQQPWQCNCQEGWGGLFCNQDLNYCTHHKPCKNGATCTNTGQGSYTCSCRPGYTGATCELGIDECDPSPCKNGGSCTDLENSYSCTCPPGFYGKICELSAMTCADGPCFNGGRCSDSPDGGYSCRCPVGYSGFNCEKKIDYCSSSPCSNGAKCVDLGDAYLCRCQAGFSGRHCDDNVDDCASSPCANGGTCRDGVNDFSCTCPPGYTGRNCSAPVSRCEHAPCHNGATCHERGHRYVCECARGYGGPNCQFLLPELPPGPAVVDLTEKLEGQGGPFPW
Description: binding ELISA on coated recombinant human DLL1, OD 405 nm. In short, it runs like this:
as §1

The target of assay [2] is human DLL4 expressed on cells (CHO-hDLL4; HEK293-hDLL4) (human, UniProt Q9NR61 27-685). The experiment in a line: cell-based or functional assay.
Assay [3] has as its target T5, recombinant human DLL4 (C-terminally His-tagged extracellular domain, R&D Systems) (human, UniProt Q9NR61 25-522, biotinylated in the competition ELISA). The experiment in a line: cell-based or functional assay.
The target in assay [4] is T5, recombinant human DLL4 (C-terminally …). The experiment in a line: SPR (Biacore), recombinant human DLL4.
Assay [5] has as its target T6, recombinant mouse DLL4 (C-terminally His-tagged extracellular domain, R&D Systems) (mouse, UniProt Q9JI71 27-532).
T6 construct: extracellular domain; also called rmDLL4; mDLL4
Description: ProteOn off-rate screen, periplasmic extract, coated mouse DLL4. On the procedure: In a first cycle, amino acid substitutions are introduced randomly in both framework (FW) and complementary determining regions (CDR) using the error-prone PCR method. […] After a polish step, PCR products are inserted via unique restriction sites into a vector designed to facilitate phage display of the VHH library. Consecutive rounds of in-solution selections are performed using decreasing concentrations of biotinylated recombinant human DLL4 (biot-rhDLL4) and trypsin elutions. Affinity-driven selections in a third round using cold rhDLL4 (at least 100× excess over biot-rhDLL4) are also performed. No selections on murine DLL4 are included as (conservation of) cross-reactivity is assessed at the screening level. Individual mutants are produced as recombinant protein using an expression vector derived from pUC119, which contains the LacZ promoter, a resistance gene for ampicillin, a multiple cloning site and an ompA leader sequence (pAX50). E. coliTG1 cells are transformed with the expression vector library and plated on agar plates (LB+Amp+2% glucose). Single colonies are picked from the agar plates and grown in 1 mL 96-deep-well plates. VHH expression is induced by adding IPTG (1 mM). Periplasmic extracts (in a volume of ˜80 uL) are prepared according to standard methods and screened for binding to recombinant human and mouse DII4 in a ProteOn (BioRad, Hercules, Calif., USA) off-rate assay. In brief, a GLC ProteOn Sensor chip is coated with recombinant human DII4 on the “ligand channels” L2 and L4 (with L1/L3 as reference channel), while “ligand channels” […] is coated with mouse DII4. Periplasmic extract of affinity-matured clones is diluted 1/10 and injected across the “analyte channels” A1-A6. An average off-rate is calculated of the wild type clones present in the plate and served as a reference to calculate off-rate improvements.

T1 sequence (Q9JI71 27-532): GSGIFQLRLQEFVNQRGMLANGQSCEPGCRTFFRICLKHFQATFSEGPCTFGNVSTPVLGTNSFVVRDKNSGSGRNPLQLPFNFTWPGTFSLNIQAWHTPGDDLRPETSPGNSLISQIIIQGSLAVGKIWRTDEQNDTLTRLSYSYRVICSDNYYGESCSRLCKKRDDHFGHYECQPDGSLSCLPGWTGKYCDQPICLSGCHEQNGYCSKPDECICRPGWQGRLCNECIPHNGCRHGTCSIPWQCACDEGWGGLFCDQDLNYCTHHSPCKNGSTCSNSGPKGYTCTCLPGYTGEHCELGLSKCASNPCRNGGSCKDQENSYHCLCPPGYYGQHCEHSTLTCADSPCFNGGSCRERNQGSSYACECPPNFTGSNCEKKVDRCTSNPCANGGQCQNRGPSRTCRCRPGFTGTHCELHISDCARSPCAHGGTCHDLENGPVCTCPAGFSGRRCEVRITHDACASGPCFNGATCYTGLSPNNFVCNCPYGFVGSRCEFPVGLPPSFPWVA
T6 sequence (Q9JI71 27-532): as above
T3 sequence (Q9JI71 27-686): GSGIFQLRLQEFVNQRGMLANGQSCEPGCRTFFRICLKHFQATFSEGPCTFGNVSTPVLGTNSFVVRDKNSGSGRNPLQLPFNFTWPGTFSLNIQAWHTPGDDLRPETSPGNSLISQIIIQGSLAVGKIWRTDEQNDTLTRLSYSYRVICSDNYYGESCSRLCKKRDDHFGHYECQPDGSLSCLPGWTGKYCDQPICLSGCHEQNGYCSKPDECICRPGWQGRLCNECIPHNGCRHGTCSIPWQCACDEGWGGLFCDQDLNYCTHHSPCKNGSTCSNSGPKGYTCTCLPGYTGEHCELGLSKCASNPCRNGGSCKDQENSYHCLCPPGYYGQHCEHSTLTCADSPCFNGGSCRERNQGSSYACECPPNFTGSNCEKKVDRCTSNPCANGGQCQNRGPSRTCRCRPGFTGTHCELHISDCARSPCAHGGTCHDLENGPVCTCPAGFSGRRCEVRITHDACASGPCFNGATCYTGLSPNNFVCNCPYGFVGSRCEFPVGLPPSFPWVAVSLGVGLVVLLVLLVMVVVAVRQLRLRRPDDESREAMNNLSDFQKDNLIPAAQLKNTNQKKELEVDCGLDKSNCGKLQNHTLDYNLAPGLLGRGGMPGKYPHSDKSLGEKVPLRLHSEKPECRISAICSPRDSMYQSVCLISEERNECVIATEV

B1: DLLBII56A09 (VHH)
VHH: EVQLVESGGGLVQPGGSLRLSCAASGFTFDDYAIGWFRQAPGKEPEGISCISSSGGITYYADSVKGRFTTSRDNAKNTVYLQMNSLKPEDTAVYYCATPGIAACRGIHYTGQGTQVTVSS
notes: also called 56A9; DLLBII56A9
As to B1, the half-maximal effective concentration (EC50) with recombinant mouse DLL4 was found to be 6.3 nM. The binding result in the assay with human Jagged-1 was “no binding (tested: 5e-7 M)”.

B2: DLLBII115A05 (VHH)
VHH: EVQLVESGGGLVQPGGSLRLSCAASGFTFGSYDMSWVRRSPGKGPEWVSSINSGGGSTYYADFVKGRFTISRDNAKNTLYLQMNSLKPEDTAVYYCAADRYIRARQGDYWGAYEYDYWGQGTQVTVSS
notes: also called 115A5; DLLBII115A5
For the molecule B2, in the assay with recombinant mouse DLL4, the 50% effective concentration (EC50) is 33.4 nM. In addition, the “% inh” value in assay [1] was determined as 84%. Moreover, the binding result with human DLL1 and with human Jagged-1 was “no binding (tested: 5e-7 M)” throughout.

B3: DLLBII136C07 (VHH, not shown: small tags and cut ends)
VHH: B2 VHH with F63Y, R103W, D108E
Turning to B3, in assay [2], the “IC50, DLL4-mediated reporter assay (hDLL4)” value amounted to 112 nM. In assay [3], the “IC50, DLL4-mediated HUVEC proliferation assay” value was determined as 14.5 nM and the “Inhibition (%), DLL4-mediated HUVEC proliferation assay” value stood at 100%. In assay [4], the Kd was determined as 1 nM, the off-rate (koff) was 0.00052 s⁻¹ and the kon was 550000 M⁻¹ s⁻¹.

B4: DLLBII101G08 (VHH)
VHH: EVQLVESGGGLVQAGGSLRLSCAASGRTFSSYAMAWFRQAPGKEREFVAAIRWSGGTAYYADSVQGRFTISRDNAKNTVYLQMNSLKPEDTAVYYCANRAADTRLGPYEYDYWGQGTQVTVSS
notes: also called 101G8; DLLBII101G8
For the molecule B4, the EC50 in the assay with recombinant mouse DLL4 was 53.9 nM. In addition, the “% inh” value in assay [1] was 92%. The binding result with human DLL1 and with human Jagged-1 was “no binding (tested: 5e-7 M)” in each case.

B5: DLLBII101G08 (VHH, not shown: small tags and cut ends)
VHH: B4 VHH
notes: parent VHH; also called 101G08 (wt); 101G8
In the case of B5, in assay [5], the “fold (off-rate vs DLLBII101G08)” value was determined as 1 fold and the koff is 0.0067 s⁻¹.

B6: DLLBII129D08 (VHH, not shown: small tags and cut ends)
VHH: B4 VHH with F37Y, F47Y, A101P, G106E, E109L
As for B6, in assay [5], the “fold (off-rate vs DLLBII101G08)” value worked out at 35 fold and the koff was found to be 0.00019 s⁻¹.

B7: DLLBII129E11 (VHH, not shown: small tags and cut ends)
VHH: B4 VHH with F37Y, F47Y, A101P, G106R, E109L
Turning to B7, in assay [5], the “fold (off-rate vs DLLBII101G08)” value was 26 fold and the koff was found to be 0.00025 s⁻¹.

B8: DLLBII129B05 (VHH, not shown: small tags and cut ends)
VHH: B4 VHH with F37Y, F47Y, A101P, G106A, Y112H
Take B8: in assay [2], the “IC50, DLL4-mediated reporter assay (hDLL4)” value was found to be 108 nM. In assay [3], the “IC50, DLL4-mediated HUVEC proliferation assay” value came out at 3.7 nM and the “Inhibition (%), DLL4-mediated HUVEC proliferation assay” value worked out at 100%. In assay [4], the Kd is 0.2 nM, the koff worked out at 7.9e-05 s⁻¹ and the on-rate (kon) was found to be 340000 M⁻¹ s⁻¹. In assay [5], the “fold (off-rate vs DLLBII101G08)” value stood at 20 fold and the dissociation rate constant (koff) amounted to 0.00034 s⁻¹.

In general, EC50 refers to the concentration that produces a half-maximal response. Usually Kd stands for the free concentration of one partner at which half of the binding sites on the other are occupied at equilibrium, for simple one-to-one binding. By koff is commonly meant the first-order rate constant of dissociation. By kon is commonly meant the second-order rate constant of association.

The record behind these values is patent publication US20140120095A1 (Boehringer Ingelheim, published 2014).
